Assay [1] addresses T1, DLL3 on cells (UniProt Q9NYJ7 27-618, limits assumed).
T1 construct: whole, on cells; also called DLL3 on SHP-77, NCI-H82 (H82), NCI-H69 and HEK-DLL3 cells
T1 sequence (looked up): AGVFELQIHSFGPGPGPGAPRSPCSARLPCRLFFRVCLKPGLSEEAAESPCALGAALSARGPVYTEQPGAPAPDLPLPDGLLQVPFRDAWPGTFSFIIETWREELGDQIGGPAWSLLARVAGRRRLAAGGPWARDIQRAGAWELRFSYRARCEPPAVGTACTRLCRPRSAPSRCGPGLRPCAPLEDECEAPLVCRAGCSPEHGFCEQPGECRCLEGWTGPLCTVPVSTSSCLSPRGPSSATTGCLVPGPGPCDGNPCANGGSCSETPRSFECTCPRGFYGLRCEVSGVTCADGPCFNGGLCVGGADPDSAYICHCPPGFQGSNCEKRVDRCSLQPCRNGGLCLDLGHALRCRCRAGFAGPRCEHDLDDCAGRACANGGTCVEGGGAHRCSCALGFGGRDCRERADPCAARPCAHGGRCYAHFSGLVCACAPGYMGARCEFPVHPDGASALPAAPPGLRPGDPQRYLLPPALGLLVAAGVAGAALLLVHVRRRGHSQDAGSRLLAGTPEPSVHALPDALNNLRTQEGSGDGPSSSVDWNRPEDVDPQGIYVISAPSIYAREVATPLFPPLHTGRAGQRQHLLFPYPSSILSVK
The assay is described as follows: flow cytometry on HEK-DLL3 cells. (In general: A flow cytometer gives signals particle by particle.)

Assay [2] concerns the target T1, DLL3 on cells. The assay is described as follows: flow cytometry on SHP-77 cells.

B1: Rovalpituzumab (antibody, V domains shown)
VH: QVQLVQSGAEVKKPGASVKVSCKASGYTFTNYGMNWVRQAPGQGLEWMGWINTYTGEPTYADDFKGRVTMTTDTSTSTAYMELRSLRSDDTAVYYCARIGDSSPSDYWGQGTLVTVSS
VL: EIVMTQSPATLSVSPGERATLSCKASQSVSNDVVWYQQKPGQAPRLLIYYASNRYTGIPARFSGSGSGTEFTLTISSLQSEDFAVYYCQQDYTSPWTFGQGTKLEIK
For orientation: EC50 means the concentration giving half of the maximal effect. A low value points to greater potency. B1: the half-maximal effective concentration (EC50) in the assay with DLL3 on cells [1] amounted to 0.06 nM; in the assay with DLL3 on cells [2], 0.11 nM.

The values are drawn from US20260183437A1 (ABDERA THERAPEUTICS, published 2026).
